Biological target: 人肿瘤坏死因子-α (hTNF-α) (human, UniProt P01375 77-233)
Assay: cell-based or functional assay

Chain of 人肿瘤坏死因子-α (hTNF-α) (P01375 77-233 limits assumed): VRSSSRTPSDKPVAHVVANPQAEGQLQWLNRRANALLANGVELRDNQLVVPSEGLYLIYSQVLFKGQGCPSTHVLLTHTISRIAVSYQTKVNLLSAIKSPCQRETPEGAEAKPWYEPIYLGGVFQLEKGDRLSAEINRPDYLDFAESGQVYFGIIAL

B1: 全人源抗hTNF-α单链抗体F6 (scFv, V domains shown)
VH: QVQLLQSAAEVKKPGESLKISCKGSGYSFTSYWIGWVRQMPGKGLEWMGIIYPGDSDTRYSPSFQGQVTISADKSISTAYLQWSSLKASDTAVYYCARFCSPWGQGTLVTV
VL: LQSVLTQPPSVSEAPRQRVTISCSGSSSNIGNNAVNWYQQLPGKAPKLLIYYDDLLPSGVSDRFSGSKSGTSASLAISGLQSEDEADYYCAAWDDSLCVFGGGTKLTVLG
**Q.** How did the “对TNF-α诱导的L929细胞毒性的抑制作用 (L929 cytotoxicity neutralisation, MTT) IC50” value turn out when B1 was run?
**A.** The value was ~15 nM.

Reference: CN101407546A (UNIV CHINA PHARMA, dated 2009)
